Source: patent WO2024034543A1
Blank lines part the entries; values can stand above or below the molecule they belong to.

Experiments:
[1] = molecular target: actin fused with ALFA tag, expressed in XTC cells; assay: single-molecule time-lapse imaging on fixed XTC cells expressing ALFA tag-fused actin; reference NbALFA WT
[2] = molecular target: actin fused with FLAG tag, expressed in XTC cells; assay: single-molecule time-lapse imaging on fixed XTC cells expressing tag-fused actin; reference 2H8 WT
[3] = molecular target: actin fused with S tag, expressed in XTC cells; assay: single-molecule time-lapse imaging on fixed XTC cells expressing tag-fused actin; reference S66B WT
[4] = molecular target: actin fused with TARGET tag, expressed in XTC cells; assay: single-molecule time-lapse imaging on fixed XTC cells expressing tag-fused actin; reference P20.1 WT
[5] = molecular target: actin fused with HA tag, expressed in XTC cells; assay: single-molecule time-lapse imaging on fixed XTC cells expressing tag-fused actin; reference 12CA5 WT
[6] = molecular target: mCherry-Hommer1 overexpressed in CTC cells; assay: single-molecule time-lapse imaging on fixed CTC cells overexpressing mCherry-Hommer1; reference HS69 WT
[7] = molecular target: mCherry-VGLUT1 overexpressed in CTC cells; assay: single-molecule time-lapse imaging on fixed CTC cells overexpressing mCherry-VGLUT1; reference NV-Nb9 WT

- fold rise of the dissociation constant against WT [1]: 1000 times
Molecule: anti-ALFA tag nanobody clone NbALFA, mutant code H2 (V27G, T28A, Y37A, E53A, R60A, V99A) (VHH)

- fold rise of the dissociation constant against WT [2]: 50 times
Molecule: anti-FLAG antibody clone 2H8, mutant code H1L3 (HS28A, LY96A), Fv-EGFP (from UniProt P01631 1-113)

- fold rise of the dissociation constant against WT [3]: 2 times
Molecule: anti-S tag antibody clone S66B, mutant code H1L0 (HS28A), Fv-EGFP (from UniProt P03976 1-113)

- fold rise of the dissociation constant against WT [4]: 10 times
Molecule: anti-TARGET tag antibody clone P20.1, mutant code H1L0 (HY59G), Fv-EGFP (from UniProt P01724 22-129)

B1: anti-HA tag antibody clone 12CA5, mutant code H6L2 (HT28A, HY32A, LY49A), Fv-EGFP (protein)
heavy: EVKLVESGGDLVKPGGSLKLSCAASGFAFSSAGMSWVRQTPDKRLEWVATISRGGSYTYYPDSVKGRFTISRDNAKNTLYLQMSSLKSEDTAMYYCARRETYDEKGFAYWGQGTTVTVSS
light: DIELTQSPSSLTVTAGEKVTMSCKSSQSLLNSGNQKNYLTWYQQKPGQPPKLLIAWASTRESGVPDRFTGSGSGRDFTLTISSVQAEDLAVYYCQNDNSHPLTFGAGTKLELKA
- fold rise of the dissociation constant against WT [5]: 100 times

- fold rise of the dissociation constant against WT [6]: 100 times
B2: anti-Homer nanobody clone HS69, mutant code H3 (S27G, T28A, F37A, Y59A) (VHH)
VHH: QVKLQESGGRLVQAGGSLRLSCTASGGAFSNSAMGWARQAPGKQRELVASIANEGQFTNAAASVKGRFTISRDNTKNVLFLQMNSLKPEDTAVYYCKLYSGRIGSSDVWGQGTQVTVSS

- fold rise of the dissociation constant against WT [7]: 50 times
B3: anti-VGLUT nanobody clone NV-Nb9, mutant code H4 (R27G, T28A, Y32A, F37A, Y102A) (VHH)
VHH: QVQLQESGGGLVQAGDSLRLSCAASGGAWSIAGMGWARQAPGKEREFVAGITWRGGNTHYADFVKGRFTISRDNVKNTVYLQMNSLKPEDTAVYYCAANPNPSGSSVYRRNDAWGQGTQVTVSS
